Experiments:
[1] = molecular target: HLA-A*03:01; test: IEDB peptide-MHC binding, cellular MHC/competitive/fluorescence; ≥ and ≤ were set here for values at or beyond the usual limits of such assays; conditions: source organism: Hepatitis B virus
[2] = molecular target: HLA-A*31:01; test: as above; conditions: source organism: Hepatitis B virus
[3] = molecular target: HLA-A*68:01; test: as above; conditions: source organism: Hepatitis B virus
[4] = molecular target: HLA-A*02:03; test: IEDB peptide-MHC binding, purified MHC/competitive/radioactivity; ≥ and ≤ were set here for values at or beyond the usual limits of such assays; conditions: source organism: Hepatitis B virus
[5] = molecular target: HLA-A*02:06; test: as above; conditions: source organism: Hepatitis B virus
[6] = molecular target: HLA-A*02:02; test: as above; conditions: source organism: Hepatitis B virus
[7] = molecular target: HLA-A*11:01; test: IEDB peptide-MHC binding, cellular MHC/competitive/fluorescence; ≥ and ≤ were set here for values at or beyond the usual limits of such assays; conditions: source organism: Hepatitis B virus
[8] = molecular target: HLA-A*68:02; test: as above
[9] = molecular target: HLA-A*02:01; test: IEDB peptide-MHC binding, purified MHC/competitive/radioactivity; ≥ and ≤ were set here for values at or beyond the usual limits of such assays; conditions: source organism: Hepatitis B virus
[10] = molecular target: HLA-A*68:02; test: as above; conditions: source organism: Hepatitis B virus
[11] = molecular target: HLA-A*02:03; test: IEDB peptide-MHC binding, cellular MHC/competitive/fluorescence; ≥ and ≤ were set here for values at or beyond the usual limits of such assays
[12] = molecular target: HLA-A*02:06; test: as above
[13] = molecular target: HLA-A*02:01; test: as above
[14] = molecular target: HLA-A*02:02; test: as above
[15] = source organism: Hepatitis B virus
[16] = source organism: Vaccinia virus WR
[17] = source organism: Influenza A virus
[18] = source organism: Mammarenavirus machupoense

Sequence	IC50 [3] [µM]	IC50 [11, 16] [µM]	IC50 [8, 16] [µM]	IC50 [12, 16] [µM]	IC50 [13, 16] [µM]	IC50 [14, 16] [µM]	other results
WLSLLVPFV	≥ 70	–	–	–	–	–	IC50 [1]: 40.3 µM; IC50 [2]: 11.7 µM
FLLAQFTSAI	23.6	–	–	–	–	–	IC50 [4]: 0.00031 µM; IC50 [5]: 0.045 µM; IC50 [6]: 3.6 nM; IC50 [1]: 11.2 µM; IC50 [2]: 16.1 µM; IC50 [7]: ≥ 70 µM
YMDDVVLGA	≥ 70	–	–	–	–	–	IC50 [4]: 1.29 µM; IC50 [5]: 3.71 µM; IC50 [1]: 69.4 µM; IC50 [2]: ≥ 70 µM; IC50 [7]: ≥ 70 µM; IC50 [8, 15]: 50.1 µM
FLLTRILTI	≥ 70	–	–	–	–	–	IC50 [1]: ≥ 70 µM; IC50 [2]: ≥ 70 µM; IC50 [8, 15]: 22.3 µM
GLLGWSPQA	≥ 70	–	–	–	–	–	IC50 [5]: 1.05 µM; IC50 [6]: 51 nM; IC50 [1]: 14 µM; IC50 [2]: 9.14 µM; IC50 [7]: ≥ 70 µM; IC50 [8, 15]: ≥ 70 µM
FLLAQFTSA	≥ 70	–	–	–	–	–	IC50 [5]: 0.0087 µM; IC50 [9]: 0.098 µM; IC50 [2]: 25.7 µM; IC50 [8, 15]: 9.89 µM
GMLPVCPLI	≥ 70	–	–	–	–	–	IC50 [1]: ≥ 70 µM; IC50 [7]: ≥ 70 µM
FLPSDFFPSV	≥ 70	–	–	–	–	–	IC50 [10]: 0.028 µM; IC50 [1]: ≥ 70 µM; IC50 [2]: 20.1 µM
PLHIVCSKTV	–	5.27	9.35	27	21.3	34.5	–
ALMPLYACI	≥ 70	–	–	–	–	–	IC50 [1]: ≥ 70 µM; IC50 [2]: 50.3 µM; IC50 [7]: ≥ 70 µM
TTENAAYQVL	–	≥ 70	18.2	≥ 70	8.11	29.7	–
CVRNLEELTT	–	15.2	33.1	43	45.2	12.6	–
CVRLNNPVIL	–	5.4	≥ 70	45.1	13.4	8.56	–
ITDQTVNICI	–	≥ 70	51.2	10.4	7.2	≥ 70	–
LAYYNSCML	–	15.5	13.3	21.5	46.1	12.8	–
TVDVRNIVT	–	13.1	5.98	53.6	10.5	13.4	–

Sequence	IC50 [3] [µM]	IC50 [11, 16] [µM]	IC50 [8, 16] [µM]	IC50 [12, 16] [µM]	IC50 [13, 16] [µM]	IC50 [14, 16] [µM]	other results
KIQLFSDFTI	–	≥ 70	≥ 70	≥ 70	≥ 70	≥ 70	–
LLLVVQALR	–	–	–	–	–	–	IC50 [11, 17]: 34.6 µM; IC50 [8, 17]: 60.4 µM; IC50 [12, 17]: 8.59 µM; IC50 [13, 17]: 10.2 µM; IC50 [14, 17]: 10.7 µM
HAKYMVTDKT	–	35	≥ 70	64.9	51.8	9.03	–
NLCKYLRGHT	–	8.04	12.3	≥ 70	37.9	39.6	–
YLEKANKI	–	–	–	–	–	–	IC50 [11, 17]: 38.3 µM; IC50 [8, 17]: ≥ 70 µM; IC50 [12, 17]: ≥ 70 µM; IC50 [13, 17]: 12.3 µM; IC50 [14, 17]: 8.22 µM
VATTHSWI	–	–	–	–	–	–	IC50 [11, 17]: 62.3 µM; IC50 [8, 17]: 56.2 µM; IC50 [12, 17]: ≥ 70 µM; IC50 [13, 17]: ≥ 70 µM; IC50 [14, 17]: ≥ 70 µM
LAIKNYYRKT	–	7.18	39.7	≥ 70	≥ 70	36.8	–
PTNDIPSLFI	–	61.8	24.8	14.8	18.4	11	–
RISSSLDQT	–	12.8	67.5	27.8	63.6	6.79	–
ILLRAFTEEGA	–	–	–	–	–	–	IC50 [11, 17]: 26.5 µM; IC50 [8, 17]: ≥ 70 µM; IC50 [12, 17]: 26.3 µM; IC50 [13, 17]: 11.9 µM; IC50 [14, 17]: 9.59 µM
SAEDNYLAKL	–	≥ 70	≥ 70	≥ 70	≥ 70	≥ 70	–
TATKRIRMA	–	–	–	–	–	–	IC50 [11, 17]: 24.1 µM; IC50 [8, 17]: ≥ 70 µM; IC50 [12, 17]: 35.4 µM; IC50 [13, 17]: 34 µM; IC50 [14, 17]: 48.4 µM
PAMSTYSDI	–	20.6	69.8	≥ 70	16.1	18.3	–
YNFSLSAAV	–	–	–	–	–	–	IC50 [11, 18]: ≥ 70 µM; IC50 [8, 18]: 29.7 µM; IC50 [12, 18]: ≥ 70 µM; IC50 [13, 18]: 7.51 µM; IC50 [14, 18]: 46.3 µM
ILSPFLPLL	≥ 70	–	–	–	–	–	IC50 [4]: 0.00084 µM; IC50 [5]: 0.00093 µM; IC50 [9]: 0.0014 µM; IC50 [6]: 0.076 nM
